In patent US20220054591A1, “METHODS OF TREATING OF INFLAMMATORY BOWEL DISEASE AND PARASITE INFECTION” (President and Fellows of Harvard College, priority 2016, published 2022):
Entries after “also recorded” stand apart in the source; their conditions may differ.

Columns and labels:
Tritrichomonas muris = test: Metronidazole in drinking water of WT (BIH) mice: T. muris abundance in stool DNA by qPCR; assay type: in vivo; details: metronidazole 2.5 g/L in drinking water for 1 week
Procedure: (§1) Antibiotic treatment—Mice were treated with metronidazole (2.5 g/L) with 1% sucrose in the drinking water for 7 days. Control mice were given 1% sucrose water over the same time span. Fluid intake was monitored and metronidazole solution was changed 4 days after initiating antibiotic treatment.
Tritrichomonas muris enumeration—The distal 10 cm of small intestine was removed and flushed with ice-cold sterile PBS using a 19-gauge feeding needle. The intestinal contents were then pelleted by centrifugation and stored at −20° C. Genomic DNA was isolated from the stool with QIamp Fast DNA Stool mini kit (Qiagen) according to the manufacturer's directions. To detect and enumerate Tritrichomonas muris, quantitative PCR (qPCR) was performed using KAPPA SYBR fast Universal PCR (KAPPA Biosystems) with the following primers recognizing T. muris 28S rRNA gene: 5′-[…]-3′(SEQ ID NO. 1) and 5′-[…]-3′ (SEQ ID NO. 2). To convert qPCR values into parasite numbers, T. muris trophozoytes were isolated and counted using a hemocytomer before extracting genomic DNA and analyzing by qPCR. […] The T. muris 28S rRNA gene and Eubacteria 16S rRNA gene were amplified by qPCR and T. muris 28S relative abundance was calculated as 2^−ΔCt(28S-16S).

tuft cells = test: Metronidazole in drinking water of WT (BIH) mice: tuft cell frequency in the epithelium; assay type: in vivo; details: metronidazole 2.5 g/L in drinking water for 1 week, vs control
Procedure: as §1
Histology and Fluorescence microscopy —The small intestine was removed and divided into proximal and distal sections before fixation in 4% paraformaldehyde. The tissue was then embedded in paraffin and cut into 5 μm thick sections. For both histology and immunofluorescence, sections were initially deparaffinized and rehydrated. Hematoxylin and eosin (H&E) staining was performed using standard procedures. Goblet cells were identified by alcian blue/nuclear red staining and enumerated along the crypt-villus axis by quantitative microscopy. For immunofluorescence, heat-mediated antigen retrieval was performed in Tris-EDTA buffer 0.05% Tween-20 pH 9.0 for 20 minutes. Afterwards, the slides were washed in PBS and blocked in PBS containing 3% BSA, 3% donkey serum, 0.1% Triton X-100, 0.1% saponin for 1 hour at room temperature. Primary antibodies were incubated overnight at 4° C. and secondary antibodies were applied for 1.5 hours at room temperature. […]

[1] = system: tuft cells in small intestinal organoids; test: Small intestinal organoids treated with recombinant cytokine: GFP+ tuft cell abundance by flow cytometry; assay type: cell-based, mice; details: 48 hours; for effect on tuft cell numbers / abundance in organoids (in words): WT and Trpm5-/- organoids, IL-13 10 ng/ml or IL-25 50 ng/ml; for tuft cells of total organoid cells: IL-13 10 ng/ml, untreated 0.3%
Procedure: Small intestine organoid culture and flow cytometry—Distal small intestinal organoids were prepared as previously described (Miyoshi et al., Nat Protoc. 8, 2471-2482 (2013)). To assess cytokine effects on tuft cells abundance, IL-13 (10 ng/ml, Biolegend, Endotoxin level <0.01 ng/μg) or IL-25 (50 ng/mil, Biolegend, Endotoxin level <0.01 ng/μg) were added to organoid media for 48 hours. To perform flow cytometry, organoids were liberated from the matrigel matrix as described by Miyoshi et al. and digested in DMEM containing 10% FBS, 0.5 units/ml Dispase II (StemCell Technologies), 50 μg/ml DNase (Roche) for 8 minutes at 37° C. The resulting solution was filtered through 40 μm mesh and stained for flow cytometry with APC-conjugated anti-EpCam (clone G8.8, Biolegend) with cell viability assessed with PI (Biolegend).

[2] = system: eosinophils and tuft cells of the distal small intestine; test: In vivo IL-25 i.p. injections in T. muris colonized Trpm5-/- mice: eosinophils and tuft cells of distal small intestine; details: 0.5 μg IL-25 i.p. daily for 7 days, vs PBS
Procedure: Epithelial cell isolation and flow cytometry —The distal 10 cm of small intestine was removed and flushed as described above. The intestine was opened longitudinally and gently agitated at 4° C. in PBS, 2% FBS, 5 mM EDTA, 1 mM DTT for 10 min. The tissue was then transferred into prewarmed PBS, 2% FBS, 5 mM EDTA and rotated at 37° C. for 15 minutes followed by vigorous shaking to remove epithelial cells. This was repeated and epithelial cells from both fractions were combined and washed with PBS. The epithelium was then digested in DMEM containing 10% FBS, 0.5 units/ml Dispase II (StemCell Technologies), 50 μg/ml DNase (Roche) for 12 minutes at 37° C. The resulting solution was passed through 40 μm filters and washed with PBS, 2% FBS, 1 mM EDTA. The resulting single cell suspension was initially Fc blocked with anti-CD16/CD32 (clone 93, Biolegend) and then stained with the following antibodies: PacBlue-conjugated anti-CD45 (clone 30-F11, Biolegend), APC-conjugated anti-EpCam (clone G8.8, Biolegend). The cell viability was assessed by propidium iodide (PI) (Biolegend) staining.
Lamina propria cell isolation and flow cytometry—The distal 10 cm of small intestine was collected and epithelial cells were removed as detailed above. […]

[3] = system: DCLK1 and Trpm5 expression in organoids; test: Small intestinal organoids treated with cytokine: gene expression by RT-qPCR; assay type: cell-based, mice; details: IL-13 treated organoids
Text: RNA isolation and RT-PCR for in vivo and vitro tuft cells—Epithelial cells from Gfi1b^EGFP/+ mice were isolated and stained for Fluorescence Activated Cell Sorting (FACS) as previously detailed. Tuft cells were sorted based on GFP^+EpCam^+CD45^−PI^− while the remaining epithelial cells were GFP-EpCam^+CD45^−PI^−. RNA was then extracted from tuft cells and the remaining epithelium using RNeasy Micro Kit (Qiagen). Whole intestinal organoids were initially stored in RNAlater solution (Ambion) before extracting RNA using Qiazol (Qiagen) according to the manufacturer's directions. cDNA was synthesized using the iScript cDNA Synthesis Kit (Bio-Rad) and RT-qPCR was performed using the KAPA SYBR FAST Universal qPCR Kit (KAPA Biosystems). […]
Small intestine organoid culture and flow cytometry—Distal small intestinal organoids were prepared as previously described (Miyoshi et al., Nat Protoc. 8, 2471-2482 (2013)). […] The resulting solution was filtered through 40 μm mesh and stained for flow cytometry with APC-conjugated anti-EpCam (clone G8.8, Biolegend) with cell viability assessed with PI (Biolegend).

Row | Molecule | T. muris levels in stool (T. muris 28S rRNA relative to eubacteria 16S rRNA) (Tritrichomonas muris) | tuft cell abundance / frequency in the epithelium (tuft cells) | effect on tuft cell numbers / abundance in organoids (in words) [1] | distal small intestinal eosinophilia [2] | tuft cell abundance in distal small intestine [2] | tuft cells of total organoid cells ([1]; Trpm5-/- organoids) | tuft cells of total organoid cells ([1]; WT organoids) | expression of Dclk1 in organoids [3] | expression of Trpm5 in organoids [3]
1 | Cc1ncc([N+](=O)[O-])n1CCO [metronidazole] | eliminated T. muris; also recorded: below the limit of detection | reduced tuft cell abundance; also recorded: reduces tuft cell frequency | – | – | – | – | – | – | –
2 | IL-25: recombinant IL-25 (Biolegend; R&D), parasite-induced cytokine, added to organoids or injected i.p. (protein, UniProt Q8VHH8 17-169, looked up) Interleukin-25: VSLRIQEGCSHLPSCCPSKEQEPPEEWLKWSSASVSPPEPLSHTHHAESCRASKDGPLNSRAISPWSYELDRDLNRVPQDLYHARCLCPHCVSLQTGSHMDPLGNSVPLYHNQTVFYRRPCHGEEGTHRRYCLERRLYRVSLACVCVRPRVMA | – | – | did not increase tuft cell numbers | restoration | restoration | – | – | – | –
3 | IL-13: recombinant IL-13 (Biolegend), type 2 cytokine added to organoid media (protein, UniProt P20109 19-131, looked up) Interleukin-13: APGPVPRSVSLPLTLKELIEELSNITQDQTPLCNGSMVWSVDLAAGGFCVALDSLTNISNCNAIYRTQRILHGLCNRKAPTTVSSLPDTKIEVAHFITKLLSYTKQLFRHGPF | – | – | increases tuft cell abundance | – | – | 10.9% | 11.9% | increased | increased
